Article PMC4498904, “Mutagenesis Study Reveals the Rim of Catalytic Entry Site of HDAC4 and -5 as the Major Binding Surface of SMRT Corepressor” (PLoS ONE, 2015)

B1: KGC-HDAC4c (C-terminal portion of Kusabira Green protein fused with HDAC4c), wild type [human] / KGN-SRD3c (N-terminal portion of Kusabira Green protein fused with SRD3c) [human] (parent complex)
chain 1: PRFTTGLVYDTLMLKHQCTCGSSSSHPEHAGRIQSIWSRLQETGLRGKCECIRGRKATLEELQTVHSEAHTLLYGTNPLNRQKLDSKKLLGSLASVFVRLPCGGVGVDSDTIWNEVHSAGAARLAVGCVVELVFKVATGELKNGFAVVRPPGHHAEESTPMGFCYFNSVAVAAKLLQQRLSVSKILIVDWDVHHGNGTQQAFYSDPSVLYMSLHRYDDGNFFPGSGAPDEVGTGPGVGFNVNMAFTGGLDPPMGDAEYLAAFRTVVMPIASEFAPDVVLVSSGFDAVEGHPTPLGGYNLSARCFGYLTKQLMGLAGGRIVLALEGGHDLTAICDASEACVSALLGNELDPLPEKVLQQRPNANAVRSMEKVMEIHSKYWRCLQRTTSTAGRSLIEAQTCENEEAET
chain 2: EGGMSVTQCSKEDGRSSSGPPHETAAPKRTYDMMEGRVGRAISSASIEGLMGRAIPPERHSPHHLKEQHHIRGSITQGIPRSYVEAQEDYLRREAKLLKREGTPPPPPPSRDLTEAYKTQALGPLKLKPAHEGLVATVKEAGRSIHEIPREELRHTPELPLAPRPLKEGSITQGTPLKYDTGASTTGSKKHDVRSLIGSPGRTFPPVHPLDVMADARALERACY
B2: KGC-HDAC5c (C-terminal portion of Kusabira Green protein fused with HDAC5c), wild type [human] / KGN-SRD3c (N-terminal portion of Kusabira Green protein fused with SRD3c) [human] (parent complex)
chain 1: LFTTGVVYDTFMLKHQCMCGNTHVHPEHAGRIQSIWSRLQETGLLSKCERIRGRKATLDEIQTVHSEYHTLLYGTSPLNRQKLDSKKLLGPISQKMYAVLPCGGIGVDSDTVWNEMHSSSAVRMAVGCLLELAFKVAAGELKNGFAIIRPPGHHAEESTAMGFCFFNSVAITAKLLQQKLNVGKVLIVDWDIHHGNGTQQAFYNDPSVLYISLHRYDNGNFFPGSGAPEEVGGGPGVGYNVNVAWTGGVDPPIGDVEYLTAFRTVVMPIAHEFSPDVVLVSAGFDAVEGHLSPLGGYSVTARCFGHLTRQLMTLAGGRVVLALEGGHDLTAICDASEACVSALLSVELQPLDEAVLQQKPNINAVATLEKVIEIQSKHWSCVQKFAAGLGRSLREAQAGETEEAETVS
chain 2: B1 chain 2

Variants of: B1
Assay: BiFC assay (fluorescence spectrophotometer); HEK293 cells; KGN-SRD3c (1 μg) and KGC-HDAC4c mutant (1 μg); 48 hours of transfection; whole cell lysates; parent: 8; read off a plot

response [RFU]	Variant
~3.9	chain 1 H194R
~4.4	chain 1 S118P
~4.2	chain 1 T111P
~4.2	chain 1 P150H
~4.3	chain 1 H154Y
~4.1	chain 1 P151H
~4.2	chain 1 N196S

Second part, the variant before the results:

Variant	response [RFU]
chain 1 A155T	~4.6
chain 1 C164Y	~4.1
chain 1 D110Y	~5.5
chain 1 G195R	~4.6
chain 1 G219A	~5.3
chain 1 F222L	~4.1
chain 1 F163S	~4.5
chain 1 A125D	~4.3
chain 1 G152E	~3.9
chain 1 G197R	~6.8

Variants of: B2
Assay: BiFC assay (fluorescence spectrophotometer); HEK293 cells; KGN-SRD3c (1 μg) and KGC-HDAC5c mutant (1 μg); 48 hours of transfection; whole cell lysates; parent: 9.3; read off a plot

response [RFU]	Variant
~3.7	chain 1 N196D
~5.9	chain 1 P151S
~4	chain 1 G326C
~3.9	chain 1 S118P
~4.9	chain 1 H154R
~3.8	chain 1 P150L

Second part, the variant before the results:

Variant	response [RFU]
chain 1 G219W	~3.9
chain 1 G195C	~3.9
chain 1 D110G	~5.1
chain 1 G127E	~3.7
chain 1 G197D	~4
chain 1 G152E	~4.1
chain 1 C164R	~4.4
chain 1 G295C	~5
chain 1 F163S	~5.8
chain 1 G325V	~4.1
chain 1 F222L	~3.9
